Legend:
[1] = target: rHuman Erythropoietin R/Fc Chimera, CF (R&D Systems Cat#963-ER) (human) (UniProt P19235); experiment: ECL (MSD multi-spot), Fab 145 nM; blank 357
[2] = target: rHuman HGF R/c-MET/Fc Chimera, CF (R&D Systems Cat#358-MT/CF) (human) (UniProt P08581); experiment: ECL (MSD multi-spot), Fab 145 nM; blank 357
[3] = target: rHuman EGF R/Fc Chimera, CF (R&D Systems Cat#344-ER) (human) (UniProt P00533); experiment: ECL (MSD multi-spot), Fab 145 nM; blank 357
[4] = target: rHuman Notch-1/Fc Chimera, CF (R&D Systems Cat#3647-TK) (human) (UniProt P46531); experiment: ECL (MSD multi-spot), Fab 145 nM; blank 357
[5] = target: rHuman P-Cadherin/Fc Chimera, CF (R&D Systems Cat#861-PC) (human) (UniProt P22223); experiment: ECL (MSD multi-spot), Fab 145 nM; blank 357
[6] = target: rHuman IGF-1 sR (IGF-1 sR), CF (R&D Systems Cat#391-GR) (human) (UniProt P08069); experiment: ECL (MSD multi-spot), Fab 145 nM; blank 357
[7] = target: rHuman HGF R/c-MET/Fc Chimera, CF (R&D Systems Cat#358-MT/CF) (human) (UniProt P08581); experiment: ECL (MSD multi-spot) screen, antigen spotted on plate, Fab at 0.58 uM; blank spot 403
[8] = target: rHuman EGF R/Fc Chimera, CF (R&D Systems Cat#344-ER) (human) (UniProt P00533); experiment: as above
[9] = target: rHuman ErbB2/Fc Chimera, CF (R&D Systems Cat#1129-ER) (human) (UniProt P04626); experiment: as above
[10] = target: rHuman IGF-1 sR, CF (R&D Systems Cat#391-GR) (human) (UniProt P08069); experiment: as above
[11] = target: rHuman Erythropoietin R/Fc Chimera, CF (R&D Systems Cat#963-ER) (human) (UniProt P19235); experiment: ECL (MSD multi-spot), Fab 36.3 nM; blank 314
[12] = target: rHuman HGF R/c-MET/Fc Chimera, CF (R&D Systems Cat#358-MT/CF) (human) (UniProt P08581); experiment: ECL (MSD multi-spot), Fab 36.3 nM; blank 314
[13] = target: rHuman EGF R/Fc Chimera, CF (R&D Systems Cat#344-ER) (human) (UniProt P00533); experiment: ECL (MSD multi-spot), Fab 36.3 nM; blank 314
[14] = target: rHuman Notch-1/Fc Chimera, CF (R&D Systems Cat#3647-TK) (human) (UniProt P46531); experiment: ECL (MSD multi-spot), Fab 36.3 nM; blank 314
[15] = target: rHuman P-Cadherin/Fc Chimera, CF (R&D Systems Cat#861-PC) (human) (UniProt P22223); experiment: ECL (MSD multi-spot), Fab 36.3 nM; blank 314
[16] = target: rHuman IGF-1 sR (IGF-1 sR), CF (R&D Systems Cat#391-GR) (human) (UniProt P08069); experiment: ECL (MSD multi-spot), Fab 36.3 nM; blank 314
[17] = target: rHuman ErbB2/Fc Chimera, CF (R&D Systems Cat#1129-ER) (human) (UniProt P04626); experiment: ECL (MSD multi-spot), Fab 36.3 nM; blank 314
[18] = target: rHuman Erythropoietin R/Fc Chimera, CF (R&D Systems Cat#963-ER) (human) (UniProt P19235); experiment: ECL (MSD multi-spot), Fab 9.1 nM; blank 276
[19] = target: rHuman HGF R/c-MET/Fc Chimera, CF (R&D Systems Cat#358-MT/CF) (human) (UniProt P08581); experiment: ECL (MSD multi-spot), Fab 9.1 nM; blank 276
[20] = target: rHuman EGF R/Fc Chimera, CF (R&D Systems Cat#344-ER) (human) (UniProt P00533); experiment: ECL (MSD multi-spot), Fab 9.1 nM; blank 276
[21] = target: rHuman Notch-1/Fc Chimera, CF (R&D Systems Cat#3647-TK) (human) (UniProt P46531); experiment: ECL (MSD multi-spot), Fab 9.1 nM; blank 276
[22] = target: rHuman P-Cadherin/Fc Chimera, CF (R&D Systems Cat#861-PC) (human) (UniProt P22223); experiment: ECL (MSD multi-spot), Fab 9.1 nM; blank 276
[23] = target: rHuman IGF-1 sR (IGF-1 sR), CF (R&D Systems Cat#391-GR) (human) (UniProt P08069); experiment: ECL (MSD multi-spot), Fab 9.1 nM; blank 276
[24] = target: rHuman ErbB2/Fc Chimera, CF (R&D Systems Cat#1129-ER) (human) (UniProt P04626); experiment: ECL (MSD multi-spot), Fab 9.1 nM; blank 276
[25] = target: rHuman Erythropoietin R/Fc Chimera, CF (R&D Systems Cat#963-ER) (human) (UniProt P19235); experiment: ECL (MSD multi-spot), Fab 580 nM; blank 679
[26] = target: rHuman HGF R/c-MET/Fc Chimera, CF (R&D Systems Cat#358-MT/CF) (human) (UniProt P08581); experiment: ECL (MSD multi-spot), Fab 580 nM; blank 679
[27] = target: rHuman EGF R/Fc Chimera, CF (R&D Systems Cat#344-ER) (human) (UniProt P00533); experiment: ECL (MSD multi-spot), Fab 580 nM; blank 679
[28] = target: rHuman Notch-1/Fc Chimera, CF (R&D Systems Cat#3647-TK) (human) (UniProt P46531); experiment: ECL (MSD multi-spot), Fab 580 nM; blank 679
[29] = target: rHuman P-Cadherin/Fc Chimera, CF (R&D Systems Cat#861-PC) (human) (UniProt P22223); experiment: ECL (MSD multi-spot), Fab 580 nM; blank 679
[30] = target: rHuman IGF-1 sR (IGF-1 sR), CF (R&D Systems Cat#391-GR) (human) (UniProt P08069); experiment: ECL (MSD multi-spot), Fab 580 nM; blank 679
[31] = target: rHuman ErbB2/Fc Chimera, CF (R&D Systems Cat#1129-ER) (human) (UniProt P04626); experiment: ECL (MSD multi-spot), Fab 580 nM; blank 679

Sequence of rHuman Erythropoietin R/Fc Chimera, CF (R&D Systems Cat#963-ER) (human) (P19235 25-250, change not shown): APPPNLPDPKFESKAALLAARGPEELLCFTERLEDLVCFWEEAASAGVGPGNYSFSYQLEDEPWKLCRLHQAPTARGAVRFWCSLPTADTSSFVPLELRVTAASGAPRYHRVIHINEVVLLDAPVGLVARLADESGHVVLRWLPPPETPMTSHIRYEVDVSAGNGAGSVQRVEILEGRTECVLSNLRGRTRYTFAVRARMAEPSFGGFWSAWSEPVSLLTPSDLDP

- ECL signal [1]: 845 ECL signal
- ECL signal [2]: 1170 ECL signal
- ECL signal [3]: 856 ECL signal
- ECL signal [4]: 860 ECL signal
- ECL signal [5]: 850 ECL signal
- ECL signal [6]: 794 ECL signal
- ECL signal [7]: 1710
- ECL signal [8]: 1020
- ECL signal [9]: 1260
- ECL signal [10]: 1200
- ECL signal [11]: 722 ECL signal
- ECL signal [12]: 1060 ECL signal
- ECL signal [13]: 831 ECL signal
- ECL signal [14]: 633 ECL signal
- ECL signal [15]: 684 ECL signal
- ECL signal [16]: 799 ECL signal
- ECL signal [17]: 1030 ECL signal
- ECL signal [18]: 697 ECL signal
- ECL signal [19]: 894 ECL signal
- ECL signal [20]: 800 ECL signal
- ECL signal [21]: 754 ECL signal
- ECL signal [22]: 589 ECL signal
- ECL signal [23]: 788 ECL signal
- ECL signal [24]: 987 ECL signal
- ECL signal [25]: 1580 ECL signal
- ECL signal [26]: 2340 ECL signal
- ECL signal [27]: 1630 ECL signal
- ECL signal [28]: 1580 ECL signal
- ECL signal [29]: 2240 ECL signal
- ECL signal [30]: 1360 ECL signal
- ECL signal [31]: 1710 ECL signal
Substance: Fab VH4-34_IGHD7-27*01_IGHJ4*01 & V1-4_IGLJ4*01

Source: patent US20120058906A1
